Patent US20150011567
Numbering of substitutions follows the chain as printed. Names may count otherwise.

T1: biotinylated H4-derived unphosphorylated peptide TVTAMDVVYALKRQGRT
T1 chain: TVTAMDVVYALKRQGRT

B1: purified Ack1 (protein)
chain: MQPEEGTGWLLELLSEVQLQQYFLRLRDDLNVTRLSHFEYVKNEDLEKIGMGRPGQRRLWEAVKRRKALCKRKSWMSKVFSGKRLEAEFPPHHSQSTFRKTSPAPGGPAGEGPLQSLTCLIGEKDLRLLEKLGDGSFGVVRRGEWDAPSGKTVSVAVKCLKPDVLSQPEAMDDFIREVNAMHSLDHRNLIRLYGVVLTPPMKMVTELAPLGSLLDRLRKHQGHFLLGTLSRYAVQVAEGMGYLESKRFIHRDLAARNLLLATRDLVKIGDFGLMRALPQNDDHYVMQEHRKVPFAWCAPESLKTRTFSHASDTWMFGVTLWEMFTYGQEPWIGLNGSQILHKIDKEGERLPRPEDCPQDIYNVMVQCWAHKPEDRPTFVALRDFLLEAQPTDMRALQDFEEPDKLHIQMNDVITVIEGRAENYWWRGQNTRTLCVGPFPRNVVTSVAGLSAQDISQPLQNSFIHTGHGDSDPRHCWGFPDRIDELYLGNPMDPPDLLSVELSTSRPPQHLGGVKKPTYDPVSEDQDPLSSDFKRLGLRKPGLPRGLWLAKPSARVPGTKASRGSGAEVTLIDFGEEPVVPALRPCAPSLAQLAMDACSLLDETPPQSPTRALPRPLHPTPVVDWDARPLPPPPAYDDVAQDEDDFEICSINSTLVGAGVPAGPSQGQTNYAFVPEQARPPPPLEDNLFLPPQGGGKPPSSAQTAEIFQALQQECMRQLQAPAGSPAPSPSPGGDDKPQVPPRVPIPPRPTRPHVQLSPAPPGEEETSQWPGPASPPRVPPREPLSPQGSRTPSPLVPPGSSPLPPRLSSSPGKTMPTTQSFASDPKYATPQVIQAPGPRAGPCILPIVRDGKKVSSTHYYLLPERPSYLERYQRFLREAQSPEEPTPLPVPLLLPPPSTPAPAAPTATVRPMPQAALDPKANFSTNNSNPGARPPPPRATARLPQRGCPGDGPEAGRPADKIQMAMVHGVTTEECQAALQCHGWSVQRAAQYLKVEQLFGLGLRPRGECHKVLEMFDWNLEQAGCHLLGSWGPAHHKR
B2: purified constitutively active E346K-Ack1 (protein)
chain: B1 chain with E346K

What was measured:
[1] = target: T1, biotinylated H4-derived …
[2] = target: purified human H3 recombinant protein (NEB), P20929
[3] = target: purified human H4 recombinant protein (NEB), P62805

Row | Protein | in vitro kinase assay on plate-bound peptide, ELISA with pY88-H4 antibodies [1] | in vitro kinase reaction, immunoblot with pTyr99-H3 antibody [2] | in vitro kinase assay, immunoblot with pTyr51-H4 antibody [3]
1 | B1 | Incubation of H4 peptide with WEE1 and Ack1 protein resulted in robust H4 Tyr88-phosphorylation | Ack1 directly phosphorylates histone H3 at Tyr99 | 
2 | B2 |  |  | When purified E346K-Ack1 and H4 were incubated, H4 was Tyr51-phosphorylated
